The source of these data is patent US20240216517A1 (CELLEMEDY, published 2024).

This experiment deals with T1, human transferrin receptor-Fc tag standard (human, UniProt P02786 89-760).
T1 construct: This is a bought standard coated on the ELISA plate; also called hTfR; not shown: Fc tag
Briefly: ELISA, human transferrin receptor-Fc coated on the plate; Kd calculated from an expected saturation point, curve not saturated at 10000 nM. The procedure: Then, it was washed 3 times with 200 μl of PBST (PBS+Tween0.05%). An antibody (mouse anti-His tag antibody, Hisprobe) that specifically binds to the hexa-His tag was diluted 1/1000 in PBST, and the diluted solution was treated by 100 μl at room temperature for 1 hour.
Then, it was washed 3 times with 200 μl of PBST (PBS+Tween0.05%). TMB solution expressing coloration by reacting with HRP was treated by 100 μl at room temperature for 15 minutes. After 50 μl of 1M H₂SO₄ solution was treated, optical density was measured with TECAN at a wavelength of 450 nm. This was calculated using the Langmuir equation (Table 5, FIGS. 8 to 10).
FIG. 11 illustrates results of evaluation/comparison of the binding force of huHF_mutant1-dual and huHF_mutant2-dual to hTfR.

What is called Kd is the free concentration of one partner at which half of the binding sites on the other are occupied at equilibrium, for simple one-to-one binding.

T1 sequence (P02786 89-760 limits assumed): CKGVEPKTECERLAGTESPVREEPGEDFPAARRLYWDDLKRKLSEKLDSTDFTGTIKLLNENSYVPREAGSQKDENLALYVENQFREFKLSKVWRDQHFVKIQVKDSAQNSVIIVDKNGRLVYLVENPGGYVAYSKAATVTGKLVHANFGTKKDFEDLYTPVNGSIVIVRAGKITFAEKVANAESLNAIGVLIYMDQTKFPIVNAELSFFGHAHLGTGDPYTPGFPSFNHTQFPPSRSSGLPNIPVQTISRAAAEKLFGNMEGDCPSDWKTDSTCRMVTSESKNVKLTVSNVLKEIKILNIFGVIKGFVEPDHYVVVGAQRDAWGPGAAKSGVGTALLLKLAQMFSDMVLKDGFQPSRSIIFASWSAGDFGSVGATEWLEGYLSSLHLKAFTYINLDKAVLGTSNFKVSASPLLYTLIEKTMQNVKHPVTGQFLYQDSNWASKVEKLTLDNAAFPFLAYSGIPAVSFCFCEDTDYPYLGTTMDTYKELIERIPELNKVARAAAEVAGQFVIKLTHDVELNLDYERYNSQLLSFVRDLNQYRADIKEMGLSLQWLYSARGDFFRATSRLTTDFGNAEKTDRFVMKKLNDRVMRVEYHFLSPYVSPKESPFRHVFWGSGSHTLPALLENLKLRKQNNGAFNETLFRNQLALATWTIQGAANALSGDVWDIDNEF

B1: huHF_Mutant2-dual (designed binder)
chain: MTTASTSQVRQNYHAASEAAINAQINLELYASYVYLSMSYYFDRDDVALKNFAKYFLHQSHEEREHAEKLMKLQNQRGGRIALADIQKPDCDGGSYGSLYAFDIDWESGLNAMECALHLEKNVNQSLLALHALATAKNDPHLCDFIETHYLNEQVKAIKELGDHVTNLRKMGAPESGLAEYLFDKHTLGDSDNESMPSFITLASLSTWEGYFDF
notes: It self-assembles into a 24-mer nanoparticle
Consider B1, for which the Kd is around 4.4 µM.
